In general, stoichiometry N refers to a count of units in the complex or per binding partner.

Read-outs that look alike come from different tables or passages of the source.

In assay [1] the target is TraO/VirB9 (pKM101-encoded T4SS) (plasmid pKM101). Kind of assay: negative stain electron microscopy.
For assay [2], the target named is TraF/VirB10 with C-terminal Strep-tag (TraF/VirB10 C-ST) (plasmid pKM101).
Assay [3] has as its target TraN/VirB7 (pKM101-encoded T4SS lipoprotein) (plasmid pKM101). In words: negative stain electron microscopy.
Assay [4] concerns the target TraF/VirB10 with C-terminal Strep-tag (TraF/VirB10 C-ST) (plasmid pKM101). In words: negative stain electron microscopy.
The target of assay [5] is C-terminal fragment of TraF/VirB10 in the D1 complex (residues 1-129 removed) (plasmid pKM101). Kind of assay: negative stain electron microscopy.

Turning to “TraO/VirB9 (pKM101-encoded T4SS) (natural protein)”, the stoichiometry N in assay [1] amounted to 14; in assay [2], 1.

On to “TraN/VirB7 (pKM101-encoded T4SS lipoprotein) (natural protein)”, for which the stoichiometry N turned out to be 14 in assay [3] and 1 in assay [2].

With “TraF/VirB10 with C-terminal Strep-tag (TraF/VirB10 C-ST) (natural protein)”, the stoichiometry N in assay [4] turned out to be 14.

Consider “C-terminal fragment of TraF/VirB10 in the D1 complex (residues 1-129 removed) (domain or fragment)”, for which the stoichiometry N in assay [5] was determined as 14.

These data come from article PMC6710095.
